# Columns and labels:
# Experiment in all cases: anti-TOX IP from EL4 nuclear extract, LC-MS/MS, MiST
# Terf2ip = Terf2ip (UniProt Q91VL8)
# Pno1 = Pno1 (UniProt Q9CPS7)
# Afg3l1 = Afg3l1 (UniProt Q920A7)
# Chtop = Chtop (UniProt Q9CY57)
# Zfr = Zfr (UniProt O88532)
# Trip12 = Trip12 (UniProt G5E870)
# Gm10094; Sap18 = target: Gm10094; Sap18
# Ogdh = Ogdh (UniProt Q60597)
# Cdc27 = Cdc27 (UniProt A2A6Q5)
# Cdk9 = Cdk9 (UniProt Q99J95)
# Tsr1 = Tsr1 (UniProt Q5SWD9)
# Rpl36a = Rpl36a (UniProt P83882)
# Taf6 = Taf6 (UniProt Q62311)
# Snx9 = Snx9 (UniProt Q91VH2)
# Rif1 = Rif1 (UniProt Q6PR54)
# Kifc5b; Kifc1 = target: Kifc5b; Kifc1
# Ppp1r10 = Ppp1r10 (UniProt Q80W00)
# Cdc23 = Cdc23 (UniProt Q8BGZ4)
# Pdlim1 = Pdlim1 (UniProt O70400)
# Aldh18a1 = Aldh18a1 (UniProt Q9Z110)
# Dlgap5 = Dlgap5 (UniProt Q8K4R9)
# Tagln2 = Tagln2 (UniProt Q9WVA4)
# Eif4g2 = Eif4g2 (UniProt Q62448)
# Wdhd1 = Wdhd1 (UniProt P59328)
# Eif4h = Eif4h (UniProt Q9WUK2)
# Chain of Cdc27 (A2A6Q5 whole entry): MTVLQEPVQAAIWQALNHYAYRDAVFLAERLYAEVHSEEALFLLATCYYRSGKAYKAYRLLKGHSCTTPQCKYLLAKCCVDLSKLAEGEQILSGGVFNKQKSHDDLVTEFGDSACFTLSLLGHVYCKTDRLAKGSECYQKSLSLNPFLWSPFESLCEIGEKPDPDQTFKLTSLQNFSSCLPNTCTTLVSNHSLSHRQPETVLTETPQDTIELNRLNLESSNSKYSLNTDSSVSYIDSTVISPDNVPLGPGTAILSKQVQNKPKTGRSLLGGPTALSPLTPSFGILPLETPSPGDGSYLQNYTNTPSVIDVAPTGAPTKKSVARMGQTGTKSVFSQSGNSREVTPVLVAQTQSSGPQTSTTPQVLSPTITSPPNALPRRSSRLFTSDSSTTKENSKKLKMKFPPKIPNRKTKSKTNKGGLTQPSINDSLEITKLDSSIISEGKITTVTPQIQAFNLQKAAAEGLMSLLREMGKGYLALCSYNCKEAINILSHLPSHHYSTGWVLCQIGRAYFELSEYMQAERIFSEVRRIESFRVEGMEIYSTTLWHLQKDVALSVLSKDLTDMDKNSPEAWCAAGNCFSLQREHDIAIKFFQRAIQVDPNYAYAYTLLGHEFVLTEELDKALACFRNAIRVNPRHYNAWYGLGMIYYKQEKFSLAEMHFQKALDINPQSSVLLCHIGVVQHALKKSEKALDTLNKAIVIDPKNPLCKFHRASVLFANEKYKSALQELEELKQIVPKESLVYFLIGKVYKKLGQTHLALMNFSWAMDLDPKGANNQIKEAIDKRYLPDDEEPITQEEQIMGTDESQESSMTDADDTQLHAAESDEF
# Chain of Afg3l1 (Q920A7 71-789 limits assumed): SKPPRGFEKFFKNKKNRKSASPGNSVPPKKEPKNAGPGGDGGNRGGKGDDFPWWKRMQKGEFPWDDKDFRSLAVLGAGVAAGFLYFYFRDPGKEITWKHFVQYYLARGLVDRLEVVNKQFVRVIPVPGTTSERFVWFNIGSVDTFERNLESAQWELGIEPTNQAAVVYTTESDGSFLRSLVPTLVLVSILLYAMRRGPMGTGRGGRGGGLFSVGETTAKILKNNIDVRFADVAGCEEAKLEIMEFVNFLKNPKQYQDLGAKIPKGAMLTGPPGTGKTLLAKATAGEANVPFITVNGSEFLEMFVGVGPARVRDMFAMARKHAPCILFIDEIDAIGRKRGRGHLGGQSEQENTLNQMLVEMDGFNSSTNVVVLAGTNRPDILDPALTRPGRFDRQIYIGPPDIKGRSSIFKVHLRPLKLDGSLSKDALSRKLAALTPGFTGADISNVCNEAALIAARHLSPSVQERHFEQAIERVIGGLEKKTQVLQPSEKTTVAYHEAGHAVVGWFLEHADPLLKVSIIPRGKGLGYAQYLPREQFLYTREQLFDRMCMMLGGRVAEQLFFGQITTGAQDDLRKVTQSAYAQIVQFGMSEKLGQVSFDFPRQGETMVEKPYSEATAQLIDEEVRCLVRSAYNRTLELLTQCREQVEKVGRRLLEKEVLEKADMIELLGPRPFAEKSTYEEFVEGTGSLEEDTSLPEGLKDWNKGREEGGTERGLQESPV
# Chain of Rif1 (Q6PR54 whole entry): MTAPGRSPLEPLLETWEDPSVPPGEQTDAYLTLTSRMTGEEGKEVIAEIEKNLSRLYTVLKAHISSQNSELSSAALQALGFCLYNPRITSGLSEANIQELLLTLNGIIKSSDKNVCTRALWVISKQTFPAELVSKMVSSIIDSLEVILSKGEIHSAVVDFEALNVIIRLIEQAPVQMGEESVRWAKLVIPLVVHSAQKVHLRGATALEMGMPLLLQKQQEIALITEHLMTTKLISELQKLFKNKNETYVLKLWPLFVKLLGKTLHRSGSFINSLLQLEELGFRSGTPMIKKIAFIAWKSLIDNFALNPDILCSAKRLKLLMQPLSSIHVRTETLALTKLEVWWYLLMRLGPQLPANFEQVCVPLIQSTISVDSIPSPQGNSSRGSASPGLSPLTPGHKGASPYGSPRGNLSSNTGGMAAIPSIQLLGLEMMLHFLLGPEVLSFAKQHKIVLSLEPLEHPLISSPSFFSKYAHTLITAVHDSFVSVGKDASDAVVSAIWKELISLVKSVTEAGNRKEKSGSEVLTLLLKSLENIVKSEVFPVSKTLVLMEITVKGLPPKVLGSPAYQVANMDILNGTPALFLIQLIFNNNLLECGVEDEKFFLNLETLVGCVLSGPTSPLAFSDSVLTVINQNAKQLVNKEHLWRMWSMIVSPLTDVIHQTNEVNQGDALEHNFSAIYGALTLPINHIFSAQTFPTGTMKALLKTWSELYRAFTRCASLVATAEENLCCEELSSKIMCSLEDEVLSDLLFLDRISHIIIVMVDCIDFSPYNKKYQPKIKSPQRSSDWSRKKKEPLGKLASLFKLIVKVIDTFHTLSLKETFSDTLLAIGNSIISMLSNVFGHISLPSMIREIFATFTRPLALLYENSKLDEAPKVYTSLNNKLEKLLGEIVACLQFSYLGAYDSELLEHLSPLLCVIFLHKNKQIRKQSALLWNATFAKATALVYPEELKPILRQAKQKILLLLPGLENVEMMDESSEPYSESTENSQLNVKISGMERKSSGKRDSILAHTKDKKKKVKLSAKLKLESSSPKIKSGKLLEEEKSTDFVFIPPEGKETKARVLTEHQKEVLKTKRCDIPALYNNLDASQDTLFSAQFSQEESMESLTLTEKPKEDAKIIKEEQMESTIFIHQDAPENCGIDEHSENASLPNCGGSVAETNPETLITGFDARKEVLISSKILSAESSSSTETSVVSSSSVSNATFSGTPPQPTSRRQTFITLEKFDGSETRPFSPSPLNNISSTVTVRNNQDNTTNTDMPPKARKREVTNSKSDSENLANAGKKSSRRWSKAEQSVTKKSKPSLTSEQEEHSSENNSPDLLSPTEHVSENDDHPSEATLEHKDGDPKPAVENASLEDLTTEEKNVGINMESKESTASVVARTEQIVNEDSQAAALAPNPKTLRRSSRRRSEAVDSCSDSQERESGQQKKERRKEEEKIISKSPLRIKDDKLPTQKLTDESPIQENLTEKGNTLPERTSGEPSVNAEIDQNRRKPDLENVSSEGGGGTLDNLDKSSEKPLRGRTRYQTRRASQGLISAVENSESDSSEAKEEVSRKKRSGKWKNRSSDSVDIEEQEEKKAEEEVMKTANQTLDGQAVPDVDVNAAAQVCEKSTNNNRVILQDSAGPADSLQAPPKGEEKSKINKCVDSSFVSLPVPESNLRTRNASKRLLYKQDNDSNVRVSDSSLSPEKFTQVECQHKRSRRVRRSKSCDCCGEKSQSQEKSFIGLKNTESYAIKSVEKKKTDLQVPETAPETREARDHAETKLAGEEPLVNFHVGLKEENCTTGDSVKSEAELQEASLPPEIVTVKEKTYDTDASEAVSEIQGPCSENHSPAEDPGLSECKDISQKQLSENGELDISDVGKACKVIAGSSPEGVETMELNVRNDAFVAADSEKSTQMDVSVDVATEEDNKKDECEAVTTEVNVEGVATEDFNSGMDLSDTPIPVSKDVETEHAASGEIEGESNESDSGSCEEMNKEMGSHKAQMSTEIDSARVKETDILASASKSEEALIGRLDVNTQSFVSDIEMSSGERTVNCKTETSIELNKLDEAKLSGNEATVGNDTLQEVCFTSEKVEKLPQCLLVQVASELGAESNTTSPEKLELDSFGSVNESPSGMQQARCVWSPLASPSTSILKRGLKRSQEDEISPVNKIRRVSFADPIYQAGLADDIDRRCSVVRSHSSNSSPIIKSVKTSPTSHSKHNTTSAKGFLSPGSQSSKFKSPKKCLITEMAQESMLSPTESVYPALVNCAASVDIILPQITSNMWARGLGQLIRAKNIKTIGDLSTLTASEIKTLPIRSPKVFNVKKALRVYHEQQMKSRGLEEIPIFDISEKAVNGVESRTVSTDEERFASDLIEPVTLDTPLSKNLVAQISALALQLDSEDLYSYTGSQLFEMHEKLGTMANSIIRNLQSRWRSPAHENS
# Chain of Wdhd1 (P59328 whole entry): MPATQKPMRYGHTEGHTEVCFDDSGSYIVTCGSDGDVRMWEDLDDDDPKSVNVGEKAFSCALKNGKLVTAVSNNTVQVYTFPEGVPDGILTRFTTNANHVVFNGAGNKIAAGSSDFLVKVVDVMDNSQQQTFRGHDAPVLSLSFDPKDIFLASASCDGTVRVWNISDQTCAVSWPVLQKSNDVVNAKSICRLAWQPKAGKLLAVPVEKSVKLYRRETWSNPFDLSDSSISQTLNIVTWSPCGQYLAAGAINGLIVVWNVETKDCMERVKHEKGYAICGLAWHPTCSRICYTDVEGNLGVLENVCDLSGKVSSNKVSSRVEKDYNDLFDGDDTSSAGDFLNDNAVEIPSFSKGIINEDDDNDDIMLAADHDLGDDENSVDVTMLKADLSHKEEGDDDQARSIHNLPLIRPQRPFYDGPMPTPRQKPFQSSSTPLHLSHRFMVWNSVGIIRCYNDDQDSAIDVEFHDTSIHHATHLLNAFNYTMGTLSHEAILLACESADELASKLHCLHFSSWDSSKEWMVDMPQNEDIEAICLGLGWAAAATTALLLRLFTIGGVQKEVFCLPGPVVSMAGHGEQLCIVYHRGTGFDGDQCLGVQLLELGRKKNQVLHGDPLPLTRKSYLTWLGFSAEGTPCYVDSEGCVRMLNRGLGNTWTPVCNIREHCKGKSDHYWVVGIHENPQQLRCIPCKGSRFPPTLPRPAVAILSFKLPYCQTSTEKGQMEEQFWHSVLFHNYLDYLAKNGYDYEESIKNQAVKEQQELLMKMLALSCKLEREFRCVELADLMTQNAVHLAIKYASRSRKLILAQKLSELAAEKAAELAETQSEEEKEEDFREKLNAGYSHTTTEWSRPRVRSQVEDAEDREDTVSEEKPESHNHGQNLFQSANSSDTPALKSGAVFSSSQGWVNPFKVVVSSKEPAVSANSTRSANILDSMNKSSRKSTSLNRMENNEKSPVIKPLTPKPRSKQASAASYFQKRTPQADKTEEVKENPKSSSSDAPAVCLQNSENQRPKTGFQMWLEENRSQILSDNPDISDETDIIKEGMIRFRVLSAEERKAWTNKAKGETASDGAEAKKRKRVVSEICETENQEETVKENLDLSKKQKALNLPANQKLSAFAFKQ
substance,measurement,setting,value
TOX (from UniProt Q66JW3 1-526),Abundance,Terf2ip,2.33e-05
same,MiST Score,Terf2ip,0.869
same,Reproducibility,Terf2ip,0.595
same,Specificity,Terf2ip,1
same,Abundance,Pno1,0.000116
same,MiST Score,Pno1,0.884
same,Reproducibility,Pno1,0.988
same,Specificity,Pno1,0.845
same,Abundance,Afg3l1,2.15e-06
same,MiST Score,Afg3l1,0.874
same,Reproducibility,Afg3l1,0.61
same,Specificity,Afg3l1,1
same,Abundance,Chtop,0.000479
same,MiST Score,Chtop,0.862
same,Reproducibility,Chtop,0.936
same,Specificity,Chtop,0.837
same,Abundance,Zfr,2.44e-06
same,MiST Score,Zfr,0.866
same,Reproducibility,Zfr,0.991
same,Specificity,Zfr,0.817
same,Abundance,Trip12,1.4e-06
same,MiST Score,Trip12,0.866
same,Reproducibility,Trip12,0.585
same,Specificity,Trip12,1
same,Abundance,Gm10094; Sap18,2.26e-05
same,MiST Score,Gm10094; Sap18,0.878
same,Reproducibility,Gm10094; Sap18,0.625
same,Specificity,Gm10094; Sap18,1
same,Abundance,Ogdh,1.34e-05
same,MiST Score,Ogdh,0.88
same,Reproducibility,Ogdh,0.851
same,Specificity,Ogdh,0.902
same,Abundance,Cdc27,6.71e-06
same,MiST Score,Cdc27,0.87
same,Reproducibility,Cdc27,0.597
same,Specificity,Cdc27,1
same,Abundance,Cdk9,1.6e-05
same,MiST Score,Cdk9,0.865
same,Reproducibility,Cdk9,0.581
same,Specificity,Cdk9,1
same,Abundance,Tsr1,5.3e-06
same,MiST Score,Tsr1,0.862
same,Reproducibility,Tsr1,0.962
same,Specificity,Tsr1,0.824
same,Abundance,Rpl36a,0.000923
same,MiST Score,Rpl36a,0.895
same,Reproducibility,Rpl36a,0.679
same,Specificity,Rpl36a,1
same,Abundance,Taf6,1.15e-06
same,MiST Score,Taf6,0.864
same,Reproducibility,Taf6,0.578
same,Specificity,Taf6,1
same,Abundance,Snx9,5.29e-06
same,MiST Score,Snx9,0.877
same,Reproducibility,Snx9,0.621
same,Specificity,Snx9,1
same,Abundance,Rif1,1.07e-07
same,MiST Score,Rif1,0.874
same,Reproducibility,Rif1,0.611
same,Specificity,Rif1,1
same,Abundance,Kifc5b; Kifc1,1.73e-06
same,MiST Score,Kifc5b; Kifc1,0.88
same,Reproducibility,Kifc5b; Kifc1,0.63
same,Specificity,Kifc5b; Kifc1,1
same,Abundance,Ppp1r10,1.37e-05
same,MiST Score,Ppp1r10,0.868
same,Reproducibility,Ppp1r10,0.65
same,Specificity,Ppp1r10,0.974
same,Abundance,Cdc23,6.55e-06
same,MiST Score,Cdc23,0.872
same,Reproducibility,Cdc23,0.758
same,Specificity,Cdc23,0.931
same,Abundance,Pdlim1,1.21e-05
same,MiST Score,Pdlim1,0.858
same,Reproducibility,Pdlim1,0.559
same,Specificity,Pdlim1,1
same,Abundance,Aldh18a1,9.69e-06
same,MiST Score,Aldh18a1,0.887
same,Reproducibility,Aldh18a1,0.702
same,Specificity,Aldh18a1,0.979
same,Abundance,Dlgap5,6.65e-06
same,MiST Score,Dlgap5,0.876
same,Reproducibility,Dlgap5,0.81
same,Specificity,Dlgap5,0.914
same,Abundance,Tagln2,1.75e-05
same,MiST Score,Tagln2,0.875
same,Reproducibility,Tagln2,0.616
same,Specificity,Tagln2,1
same,Abundance,Eif4g2,4.84e-06
same,MiST Score,Eif4g2,0.866
same,Reproducibility,Eif4g2,0.887
same,Specificity,Eif4g2,0.864
same,Abundance,Wdhd1,1.64e-06
same,MiST Score,Wdhd1,0.877
same,Reproducibility,Wdhd1,0.619
same,Specificity,Wdhd1,1
same,Abundance,Eif4h,1.07e-05
same,MiST Score,Eif4h,0.869
same,Reproducibility,Eif4h,0.595
same,Specificity,Eif4h,1
